Assay results from patent US20190077875A1 (MorphoSys, published 2019).

Target: T1, MOR202 (anti-CD38 antibody)
T1 construct: also called MOR03087
Assay: serum immunofixation electrophoresis (IFE) after pre-incubation of MOR202 (1200 µg/mL, saline or serum) with MOR09292-hAlb; anti-IgG or anti-lambda staining
Protocol: MOR202 at a constant concentration of 1200 μg/mL in saline (Lane 2-3) or serum (Lane 4-13) was pre-incubated with or without its idiotypic antibody MOR09292-hAlb at different ratios and the prepared samples were analyzed via IFE using anti-IgG staining (Lane 2-8) or anti-lambda staining (Lane 9-13). (Lane 2=MOR202; Lane 3=MOR202+MOR09292-hAlb at 2400 μg/mL; Lane 4=MOR202; Lane 5=MOR202+MOR09292-hAlb at 1200 μg/mL; Lane 6=MOR202+MOR09292-hAlb at 1800 μg/mL; Lane 7=MOR202+MOR09292-hAlb at 2400 μg/mL; Lane 8=MOR202+MOR09292-hAlb at 3600 μg/mL; Lane 9=MOR202; Lane 10=MOR202+MOR09292-hAlb at 1200 μg/mL; Lane 11=MOR202+MOR09292-hAlb at 1800 μg/mL; Lane 12=MOR202+MOR09292-hAlb at 2400 μg/mL; Lane 13=MOR202+MOR09292-hAlb at 3600 μg/mL; Lane 1=human serum from a healthy donor stained for total protein to evaluate general background signaling).
In order to differentiate between MOR202 related assay signals in IFE vs. endogenous M-protein spikes a method was tested pre-incubating a MOR202 containing sample with an MOR202 specific anti-idiotypic antibody (MOR09292). […] For evaluating if the migration distance is large enough to be detected samples containing MOR202 in saline were prepared and pre-incubated with or without MOR09292. […] Afterwards, the samples were analyzed and IFE gels were stained with anti-IgG or anti-lambda antisera. […]

T1 sequence (VH, as listed by the source, chain 1 of 2): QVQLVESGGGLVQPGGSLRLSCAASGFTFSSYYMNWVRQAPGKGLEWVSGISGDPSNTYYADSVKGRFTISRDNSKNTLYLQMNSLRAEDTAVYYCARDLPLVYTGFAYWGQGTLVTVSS
T1 sequence (VL, as listed by the source, chain 2 of 2): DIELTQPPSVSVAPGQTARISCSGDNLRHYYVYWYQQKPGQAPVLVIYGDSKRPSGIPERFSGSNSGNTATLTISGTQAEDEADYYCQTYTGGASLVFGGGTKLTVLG

B1: MOR09292-human albumin fusion (MOR09292-Fab fragment genetically fused to human albumin) (Fab)
heavy: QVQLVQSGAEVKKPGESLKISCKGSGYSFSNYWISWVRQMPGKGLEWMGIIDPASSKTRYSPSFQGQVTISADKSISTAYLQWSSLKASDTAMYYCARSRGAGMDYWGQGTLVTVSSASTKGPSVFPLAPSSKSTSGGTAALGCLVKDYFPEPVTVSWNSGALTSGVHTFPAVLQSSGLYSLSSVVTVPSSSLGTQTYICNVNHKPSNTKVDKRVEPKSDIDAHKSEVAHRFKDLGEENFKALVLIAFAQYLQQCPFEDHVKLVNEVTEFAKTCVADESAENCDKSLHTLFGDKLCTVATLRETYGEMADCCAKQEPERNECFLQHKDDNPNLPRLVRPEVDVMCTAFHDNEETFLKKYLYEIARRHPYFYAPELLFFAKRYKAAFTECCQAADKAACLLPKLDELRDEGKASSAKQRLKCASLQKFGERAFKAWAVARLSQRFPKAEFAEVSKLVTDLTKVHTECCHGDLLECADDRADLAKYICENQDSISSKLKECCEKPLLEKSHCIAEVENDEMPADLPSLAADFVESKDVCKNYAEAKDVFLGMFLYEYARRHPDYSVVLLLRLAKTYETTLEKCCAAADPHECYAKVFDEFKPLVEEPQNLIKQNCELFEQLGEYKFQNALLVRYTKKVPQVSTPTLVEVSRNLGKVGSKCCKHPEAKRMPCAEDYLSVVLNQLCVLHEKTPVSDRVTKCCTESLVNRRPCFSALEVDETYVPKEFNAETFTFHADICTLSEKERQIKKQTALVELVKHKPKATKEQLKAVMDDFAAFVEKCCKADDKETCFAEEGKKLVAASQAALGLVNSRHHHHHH
light: DIVLTQPPSVSGAPGQRVTISCTGSSSNIGAGYDVHWYQQLPGTAPKLLIYADNNRPSGVPDRFSGSKSGTSASLAITGLQSEDEADYYCGSYDESSNSMVFGGGTKLTVLGQPKAAPSVTLFPPSSEELQANKATLVCLISDFYPGAVTVAWKADSSPVKAGVETTTPSKQSNNKYAASSYLSLTPEQWKSHRSYSCQVTHEGSTVEKTVAPTECS
notes: Anti-idiotypic Fab to MOR202, fused to human albumin; also called MOR09292-hAlb; MOR09292-huAlb
- binding result: binds
